This note sets out measurements from patent US20090186036A1.

In test [1] the target is soluble recombinant human αvβ6 (human) (UniProt P06756). In words: ELISA, coated hsαvβ6.
The target in test [2] is αvβ6 on β6-transfected SW480 cells (UniProt P06756). The test is described as follows: cell-based or functional assay.
For test [3], the target named is soluble recombinant human αvβ6 (human) (UniProt P06756). The test is described as follows: biotin-hsαvβ6 to coated LAP, blocking.
Test [4] addresses αvβ6 on β6-transfected FDC-P1 cells (murine) (UniProt P43406). The test is described as follows: β6-FDC-P1 cells to coated LAP, blocking.
The target in test [5] is soluble recombinant human αvβ6 (human) (UniProt P06756). The test is described as follows: KinExA, solution affinity for soluble αvβ6.
For test [6] the target is unchanged. In words: ELISA on plate-bound soluble αvβ6 in Ca/Mg [panel B].
The target is the same in test [7]. In words: ELISA on plate-bound soluble αvβ6 in EDTA (10 mM) [panel B].
For test [8] the target is unchanged. The test is described as follows: ELISA on plate-bound soluble αvβ6 in Mn (1 mM MnCl2) [panel B].
Test [9] addresses αvβ6 on β6-transfected SW480 cells (UniProt P06756). In words: adhesion of SW480β6 cells to LAP, % binding; blocked ligand LAP [SW480β6 panel].
The target of test [10] is αvβ6 of human tumor cells and tissues (Detroit 562 cells, SCC-14 cells, carcinoma sections) (human) (UniProt P06756). In words: adhesion of Detroit562 cells to LAP, % binding; blocked ligand LAP [Detroit562 panel].
αvβ6 of human tumor cells and tissues (Detroit 562 cells, SCC-14 cells, carcinoma sections) (human), sequence (P06756 31-1048, chain 1 of 2): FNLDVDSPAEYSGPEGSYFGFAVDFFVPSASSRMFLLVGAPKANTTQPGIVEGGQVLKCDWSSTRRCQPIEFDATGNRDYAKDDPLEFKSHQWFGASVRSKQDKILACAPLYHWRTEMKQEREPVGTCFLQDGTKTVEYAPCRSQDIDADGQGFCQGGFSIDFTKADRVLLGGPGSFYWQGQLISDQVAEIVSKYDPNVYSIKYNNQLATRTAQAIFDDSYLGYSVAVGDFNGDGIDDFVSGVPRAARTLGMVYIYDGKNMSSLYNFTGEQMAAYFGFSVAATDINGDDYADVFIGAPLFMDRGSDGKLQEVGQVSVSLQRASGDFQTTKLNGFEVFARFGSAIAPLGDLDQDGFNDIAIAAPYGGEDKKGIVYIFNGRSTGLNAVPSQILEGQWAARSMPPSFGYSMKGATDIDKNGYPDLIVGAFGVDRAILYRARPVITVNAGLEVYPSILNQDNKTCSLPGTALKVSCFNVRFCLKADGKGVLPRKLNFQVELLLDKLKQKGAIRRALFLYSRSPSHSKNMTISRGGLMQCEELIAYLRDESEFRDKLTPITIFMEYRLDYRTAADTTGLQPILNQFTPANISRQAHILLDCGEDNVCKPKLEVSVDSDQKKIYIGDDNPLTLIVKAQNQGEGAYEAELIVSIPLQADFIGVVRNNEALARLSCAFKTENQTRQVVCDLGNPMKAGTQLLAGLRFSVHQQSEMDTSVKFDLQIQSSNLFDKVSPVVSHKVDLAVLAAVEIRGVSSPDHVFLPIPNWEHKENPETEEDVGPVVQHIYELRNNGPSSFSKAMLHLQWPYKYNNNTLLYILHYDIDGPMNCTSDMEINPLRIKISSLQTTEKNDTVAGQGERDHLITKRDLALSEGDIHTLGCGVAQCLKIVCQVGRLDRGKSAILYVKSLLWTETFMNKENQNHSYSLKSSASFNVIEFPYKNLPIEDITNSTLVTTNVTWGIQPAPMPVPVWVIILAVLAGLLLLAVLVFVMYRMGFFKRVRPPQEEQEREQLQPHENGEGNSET
αvβ6 of human tumor cells and tissues (Detroit 562 cells, SCC-14 cells, carcinoma sections) (human), sequence (P18564 22-788, chain 2 of 2, further chain): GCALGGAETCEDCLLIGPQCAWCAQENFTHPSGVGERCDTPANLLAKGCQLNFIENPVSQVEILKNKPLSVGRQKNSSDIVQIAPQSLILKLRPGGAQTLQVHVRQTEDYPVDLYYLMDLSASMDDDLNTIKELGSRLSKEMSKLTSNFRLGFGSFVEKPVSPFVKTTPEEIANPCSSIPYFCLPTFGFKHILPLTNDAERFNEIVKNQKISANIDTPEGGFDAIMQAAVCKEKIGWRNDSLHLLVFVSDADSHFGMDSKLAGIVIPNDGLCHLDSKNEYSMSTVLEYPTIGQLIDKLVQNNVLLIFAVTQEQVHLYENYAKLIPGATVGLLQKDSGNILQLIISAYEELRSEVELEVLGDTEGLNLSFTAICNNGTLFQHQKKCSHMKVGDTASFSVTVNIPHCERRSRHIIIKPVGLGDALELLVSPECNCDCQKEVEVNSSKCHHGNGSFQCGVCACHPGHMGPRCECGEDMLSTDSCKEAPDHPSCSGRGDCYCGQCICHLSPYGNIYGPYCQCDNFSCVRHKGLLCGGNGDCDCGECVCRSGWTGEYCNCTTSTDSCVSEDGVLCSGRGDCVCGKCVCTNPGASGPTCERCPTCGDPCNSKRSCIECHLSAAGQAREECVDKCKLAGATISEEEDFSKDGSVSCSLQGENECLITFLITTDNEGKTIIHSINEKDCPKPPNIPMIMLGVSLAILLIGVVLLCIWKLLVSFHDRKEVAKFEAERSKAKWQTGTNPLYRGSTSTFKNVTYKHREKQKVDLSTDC
Test [11] addresses soluble recombinant human αvβ6 (human) (UniProt P06756). The test is described as follows: ELISA on plate-bound soluble αvβ6 in Ca/Mg [panel C].
Test [12] has the same target. In words: KinExA, solution affinity for soluble αvβ6, with CaCl2 and MgCl2.
Test [13] shares this target. The test is described as follows: ELISA on plate-bound soluble αvβ6 in Mn (1 mM MnCl2) [panel C].
The target in test [14] is αvβ6 on β6-transfected FDC-P1 cells (murine) (UniProt P43406). The test is described as follows: adhesion of labelled β6-transfected FDC-P1 cells to plate-bound LAP, % binding; blocked ligand LAP.
αvβ6 on β6-transfected FDC-P1 cells (murine), sequence (P43406 31-1044, chain 1 of 2): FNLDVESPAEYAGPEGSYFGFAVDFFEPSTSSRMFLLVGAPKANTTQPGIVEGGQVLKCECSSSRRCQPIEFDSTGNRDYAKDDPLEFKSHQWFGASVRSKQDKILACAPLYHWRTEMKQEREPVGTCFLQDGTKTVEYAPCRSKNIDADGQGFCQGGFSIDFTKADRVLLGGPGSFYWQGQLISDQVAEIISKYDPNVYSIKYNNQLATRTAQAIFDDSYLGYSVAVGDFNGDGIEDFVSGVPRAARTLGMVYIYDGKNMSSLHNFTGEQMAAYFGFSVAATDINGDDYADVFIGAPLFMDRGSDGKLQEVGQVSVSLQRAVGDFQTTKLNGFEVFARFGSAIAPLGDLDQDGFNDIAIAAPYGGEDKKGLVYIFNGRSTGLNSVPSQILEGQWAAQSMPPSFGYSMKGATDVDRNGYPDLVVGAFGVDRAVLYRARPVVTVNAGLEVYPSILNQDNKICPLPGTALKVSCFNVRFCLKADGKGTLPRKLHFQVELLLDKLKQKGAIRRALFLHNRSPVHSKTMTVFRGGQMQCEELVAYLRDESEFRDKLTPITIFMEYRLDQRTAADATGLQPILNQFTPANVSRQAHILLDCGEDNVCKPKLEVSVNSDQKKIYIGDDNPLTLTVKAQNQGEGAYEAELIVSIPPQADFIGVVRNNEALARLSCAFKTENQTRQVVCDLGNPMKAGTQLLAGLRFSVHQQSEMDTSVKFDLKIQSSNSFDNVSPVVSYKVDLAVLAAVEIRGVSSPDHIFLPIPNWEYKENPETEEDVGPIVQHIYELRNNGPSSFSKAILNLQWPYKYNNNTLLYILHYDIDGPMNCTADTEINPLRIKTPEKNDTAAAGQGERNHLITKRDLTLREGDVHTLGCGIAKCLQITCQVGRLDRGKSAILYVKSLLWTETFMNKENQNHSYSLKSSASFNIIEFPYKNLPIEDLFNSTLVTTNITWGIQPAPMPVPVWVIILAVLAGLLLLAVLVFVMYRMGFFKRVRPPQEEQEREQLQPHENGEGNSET
αvβ6 on β6-transfected FDC-P1 cells (murine), sequence (Q9Z0T9 22-787, chain 2 of 2, further chain): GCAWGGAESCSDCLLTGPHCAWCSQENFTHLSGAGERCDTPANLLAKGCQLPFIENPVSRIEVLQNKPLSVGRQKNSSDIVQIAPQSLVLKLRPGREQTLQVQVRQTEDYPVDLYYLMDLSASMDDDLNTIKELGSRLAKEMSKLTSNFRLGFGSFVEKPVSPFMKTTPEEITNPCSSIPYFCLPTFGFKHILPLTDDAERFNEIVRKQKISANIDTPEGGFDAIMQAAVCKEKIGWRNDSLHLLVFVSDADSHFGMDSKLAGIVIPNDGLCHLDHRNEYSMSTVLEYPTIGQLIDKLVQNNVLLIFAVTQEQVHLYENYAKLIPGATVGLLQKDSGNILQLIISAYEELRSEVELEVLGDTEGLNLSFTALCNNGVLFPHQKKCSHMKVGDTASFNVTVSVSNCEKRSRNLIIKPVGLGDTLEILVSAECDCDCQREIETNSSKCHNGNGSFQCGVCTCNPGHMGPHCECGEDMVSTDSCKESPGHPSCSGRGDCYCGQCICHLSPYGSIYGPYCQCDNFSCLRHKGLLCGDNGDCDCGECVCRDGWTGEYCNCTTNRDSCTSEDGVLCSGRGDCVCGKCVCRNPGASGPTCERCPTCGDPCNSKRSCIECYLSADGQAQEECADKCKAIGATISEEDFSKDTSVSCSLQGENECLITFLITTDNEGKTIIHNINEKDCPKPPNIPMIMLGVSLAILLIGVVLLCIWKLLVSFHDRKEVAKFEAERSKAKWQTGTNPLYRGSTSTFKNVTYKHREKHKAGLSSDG
For test [15] the target is unchanged. Described as above. The source holds these as a separate data set.
For test [16] the target is unchanged. Described as above. The source holds these as a separate data set.
The target of test [17] is soluble recombinant human αvβ6 (human) (UniProt P06756). The test is described as follows: ELISA on plate-bound soluble αvβ6 in Ca/Mg [panel F].
Test [18] has the same target. In words: ELISA on plate-bound soluble αvβ6 in EDTA (10 mM) [panel F].
Test [19] has the same target. In words: ELISA on plate-bound soluble αvβ6 in Mn (1 mM MnCl2) [panel F].

αvβ6 on β6-transfected SW480 cells, sequence (P06756 31-1048, chain 1 of 2): as the sequence (P06756 31-1048, chain 1 of 2) above
αvβ6 on β6-transfected SW480 cells, sequence (P18564 22-788, chain 2 of 2, further chain): as the sequence (P18564 22-788, chain 2 of 2, further chain) above

6.3G9 (antibody): the EC50 in test [1] is 0.0767 µg/mL. In [2], this substance yielded a PAI-1 luciferase IC50 of 0.375 µg/mL. Moreover, the IC50 was found to be 0.271 µg/mL in [3] and 0.017 µg/mL in test [4]. For the same substance, in [5], the Kd stood at 0.0156 nM. Further, the EC50 (read off the curve) in [6], in test [7] and in [8] was 0.09 µg/mL throughout. The IC50 (read off the curve) is 0.03 µg/mL in test [9] and 0.04 µg/mL in [10].

For the substance 6.8G6 (antibody), in [1], the EC50 was found to be 0.0175 µg/mL. In addition, the PAI-1 luciferase IC50 in test [2] worked out at 0.312 µg/mL. The half-maximal inhibitory concentration (IC50) in test [3] stood at 0.169 µg/mL; in [4], 0.023 µg/mL; in [14], 0.083 µg/mL; in test [15], 0.061 µg/mL; in test [16], 0.101 µg/mL. For the same substance, the EC50 (read off the curve) in test [11] was 0.02 µg/mL; in test [13], 0.03 µg/mL. Moreover, the Kd in test [12] amounted to 0.0228 nM.

L230 (antibody): in [1], the EC50 worked out at 0.0271 µg/mL. For the same substance, the IC50 in [3] was 0.229 µg/mL. Further, the concentration for a half-maximal effect (EC50 (read off the curve)) in [17], in [18] and in test [19] was 0.01 µg/mL in each case.
